From article PMC7618180 (2025) come the findings set out here.

As usually defined, the Kd is the constant that tells how readily two partners part at equilibrium. A low value points to higher affinity.

B2: isolated ZZ-DZB domain of KCMF1 (domain or fragment)
chain: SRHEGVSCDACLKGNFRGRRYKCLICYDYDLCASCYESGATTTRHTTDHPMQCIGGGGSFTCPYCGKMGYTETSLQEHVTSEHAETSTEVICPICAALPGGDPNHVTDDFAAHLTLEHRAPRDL

Among the targets are ^NRA peptide; ^NRR peptide; ^NLT peptide.
Test in all cases: ITC
Background: In ITC the heat of successive injections is recorded.

Test [1] has as its target B2.

^NLT peptide, sequence (Q9P0J7 other isoform, or with tags, fused parts or gaps): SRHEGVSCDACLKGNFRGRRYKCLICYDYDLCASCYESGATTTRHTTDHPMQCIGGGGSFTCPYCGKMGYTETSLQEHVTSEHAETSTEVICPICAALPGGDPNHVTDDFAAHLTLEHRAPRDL

B1: AtUBR4 ZZ domain (domain or fragment)
chain: SSVQYCCDGCSTVPILRRRWHCTVCPDFDLCEACYEVLDADRLPPPHTRDHPMTAIPI
On to B1, for which the figures for the Kd in the test with ^NRA peptide and with ^NRR peptide were 10 µM and 19 µM, respectively.

B2 gave a Kd with ^NLT peptide of 16 µM.

B3: ^NRT peptide (ITC) (peptide)
chain: RTGG
As for B3, binding in test [1] was characterised by a dissociation constant (Kd) of 7 µM.
